What all share (assay): IEDB peptide-MHC binding, purified MHC/competitive/radioactivity; filed as Kd, often an IC50 or EC50 that approximates it; ≥ and ≤ were set here for values at or beyond the usual limits of such assays
The target in assay [1] is HLA-A*68:01.
For assay [2], the target named is HLA-A*11:01.
For assay [3], the target named is HLA-A*03:01.
Assay [4] concerns the target HLA-A*33:01.
Assay [5] has as its target HLA-A*31:01.
Setting [6] is: source organism: Vaccinia virus WR.
Where [7] appears, read: source organism: Mammarenavirus guanaritoense.
The mark [8] stands for this setting: source organism: Mammarenavirus whitewaterense.
[9] abbreviates: source organism: Mammarenavirus brazilense.
The mark [10] stands for this setting: source organism: SARS coronavirus Tor2.

Broadly, the Kd is the constant that tells how readily two partners part at equilibrium.

Some results are limits rather than exact numbers.

As to AIFTYTGGY, the Kd in assay [1] (setting [6]) is 8380 nM; in assay [2] (setting [6]), 282 nM; in assay [3] (setting [6]), 287 nM; in assay [4] (setting [6]) it was no less than 77700 nM; in assay [5] (setting [6]), 7160 nM.
For the sequence TSLAIKNYYR, the Kd was 5.8 nM in assay [1] (setting [6]); 0.933 nM in assay [2] (setting [6]); 118 nM in assay [3] (setting [6]); 258 nM in assay [4] (setting [6]); 460 nM in assay [5] (setting [6]).
Turning to TCITSMAER, the Kd in assay [1] (setting [7]) is 243 nM; in assay [2] (setting [7]), 17400 nM; in assay [3] (setting [7]), no less than 67000 nM; in assay [4] (setting [7]), 2630 nM; in assay [5] (setting [7]), 559 nM.
Turning to FMDEIDHESY, the Kd in assay [1] (setting [6]) is no less than 59200 nM; in assay [2] (setting [6]) it was no less than 36400 nM; in assay [3] (setting [6]), 15800 nM; in assay [4] (setting [6]), no less than 43700 nM; in assay [5] (setting [6]) it was no less than 22000 nM.
For SRLFEDLVWK, the Kd in assay [1] (setting [8]) is 605 nM; in assay [2] (setting [8]) it was 1270 nM; in assay [3] (setting [8]), 661 nM; in assay [4] (setting [8]) it was no less than 70000 nM; in assay [5] (setting [8]), 8590 nM.
Take TLDTMDDMK: the dissociation constant (Kd) is 373 nM in assay [1] (setting [6]); 466 nM in assay [2] (setting [6]); 11800 nM in assay [3] (setting [6]); no less than 77700 nM in assay [4] (setting [6]); no less than 77900 nM in assay [5] (setting [6]).
Take KCFEKFLEPK: the Kd is 3470 nM in assay [1] (setting [9]); 16900 nM in assay [2] (setting [9]); 1270 nM in assay [3] (setting [9]); no less than 23100 nM in assay [4] (setting [9]); 1030 nM in assay [5] (setting [9]).
Consider YIWIKNLETY, for which the dissociation constant (Kd) in assay [1] (setting [6]) worked out at 161 nM; in assay [2] (setting [6]), 3440 nM; in assay [3] (setting [6]), 1460 nM; in assay [4] (setting [6]), 4480 nM; in assay [5] (setting [6]) it was 1740 nM.
Turning to STDVNKQNK, the Kd was 290 nM in assay [1] (setting [6]); 11.9 nM in assay [2] (setting [6]); 8970 nM in assay [3] (setting [6]); no less than 77700 nM in assay [4] (setting [6]); 1180 nM in assay [5] (setting [6]).
As to RTELGVEFLK, the Kd in assay [1] (setting [10]) was determined as 9720 nM; in assay [2] (setting [10]) it was 52.4 nM; in assay [3] (setting [10]) it was 962 nM; in assay [4] (setting [10]) it was 15900 nM; in assay [5] (setting [10]) it was 1350 nM.
For YLALYNKYK, in that order: 913 nM, 1320 nM, 201 nM, 7980 nM and 941 nM.
The like results for LLLFADINGK were, in that order, 9200 nM, 508 nM, 136 nM, 17200 nM and no less than 24100 nM.
In the case of LMHPDFCKNR, the equilibrium dissociation constant (Kd) was 8450 nM in assay [1] (setting [6]); no less than 24500 nM in assay [2] (setting [6]); 13600 nM in assay [3] (setting [6]); 254 nM in assay [4] (setting [6]); 16.9 nM in assay [5] (setting [6]).
As to GVRFFFYTSK, the Kd in assay [1] (setting [10]) was determined as 121 nM; in assay [2] (setting [10]), 44.6 nM; in assay [3] (setting [10]), 88.9 nM; in assay [4] (setting [10]), 11000 nM; in assay [5] (setting [10]) it was 488 nM.
Consider QMRTPLHKY, for which the Kd in assay [1] (setting [6]) was no less than 77700 nM; in assay [2] (setting [6]), 1760 nM; in assay [3] (setting [6]), 141 nM; in assay [4] (setting [6]), no less than 77700 nM; in assay [5] (setting [6]) it was 7830 nM.
On to QLLMPLKAPK, for which the Kd in assay [1] (setting [10]) turned out to be 1530 nM; in assay [2] (setting [10]), 146 nM; in assay [3] (setting [10]), 100 nM; in assay [4] (setting [10]), 2290 nM; in assay [5] (setting [10]), 134 nM.
On to LQMAGVEVR, for which the Kd was found to be 2380 nM in assay [1] (setting [6]); 5760 nM in assay [2] (setting [6]); 13900 nM in assay [3] (setting [6]); 6150 nM in assay [4] (setting [6]); 218 nM in assay [5] (setting [6]).
The like results for IVNEHDIKY were, in that order, 4460 nM, 85.1 nM, 1.13 nM, no less than 55800 nM and no less than 39900 nM.
For NAILHNIYR, in that order: 0.565 nM, 1360 nM, no less than 36100 nM, 1.82 nM and 5.17 nM.
In the case of QFNQMMNPSH, the dissociation constant (Kd) in assay [1] (setting [9]) was no less than 70100 nM; in assay [2] (setting [9]), no less than 69700 nM; in assay [3] (setting [9]), no less than 70000 nM; in assay [4] (setting [9]), no less than 70000 nM; in assay [5] (setting [9]), no less than 20200 nM.
In the case of VVRDFENYVK, the Kd amounted to 71.3 nM in assay [1] (setting [6]); 30.7 nM in assay [2] (setting [6]); 24.9 nM in assay [3] (setting [6]); 8050 nM in assay [4] (setting [6]); 269 nM in assay [5] (setting [6]).
Regarding RSKIEVGIRH, the Kd in assay [1] (setting [7]) was no less than 22200 nM; in assay [2] (setting [7]), no less than 29000 nM; in assay [3] (setting [7]) it was 13700 nM; in assay [4] (setting [7]), no less than 70000 nM; in assay [5] (setting [7]), 1630 nM.
For the sequence FLIGANYLGK, the Kd is 51.3 nM in assay [1] (setting [10]); 543 nM in assay [2] (setting [10]); 213 nM in assay [3] (setting [10]); no less than 34000 nM in assay [4] (setting [10]); 3720 nM in assay [5] (setting [10]).

The record behind these values is the Immune Epitope Database (IEDB).
